What was measured:
Test in all cases: Western blot of culture supernatant (non-reducing SDS-PAGE) probed with 3F7 mAb, anti-human IgG-FITC
N516S = molecular target: T1, N516S
T1 construct: also called Mu-FXII N516S mutant with C-terminal 8xHis-tag; mutant l)
T1 single chain: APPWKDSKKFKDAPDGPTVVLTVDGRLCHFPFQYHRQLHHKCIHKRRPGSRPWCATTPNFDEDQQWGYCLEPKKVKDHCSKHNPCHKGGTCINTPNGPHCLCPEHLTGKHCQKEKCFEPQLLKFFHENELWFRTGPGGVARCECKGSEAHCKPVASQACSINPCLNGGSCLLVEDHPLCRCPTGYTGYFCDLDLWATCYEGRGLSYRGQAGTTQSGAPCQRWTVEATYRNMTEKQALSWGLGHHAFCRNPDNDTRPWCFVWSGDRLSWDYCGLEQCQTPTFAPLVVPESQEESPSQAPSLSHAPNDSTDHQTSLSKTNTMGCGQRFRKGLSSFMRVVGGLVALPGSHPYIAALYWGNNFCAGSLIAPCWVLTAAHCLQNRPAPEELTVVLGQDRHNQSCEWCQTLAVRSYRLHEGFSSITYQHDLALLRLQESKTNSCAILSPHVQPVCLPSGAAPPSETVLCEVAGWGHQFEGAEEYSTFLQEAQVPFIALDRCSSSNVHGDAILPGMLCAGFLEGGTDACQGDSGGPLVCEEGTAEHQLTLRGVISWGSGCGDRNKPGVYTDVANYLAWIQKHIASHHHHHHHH
Method: (§1) Proteins were then transferred electrophoretically onto nitrocellulose filters and blocked for 1 hour in 5% Milk powder in Tris-buffered saline with 0.05% Tween-20 (TTBS). Filters were then incubated for 1 hour with either 3F7 mAb or an anti-His mAb 3H3 (both at […] in TTBS with 5% Milk powder), washed thoroughly with TTBS, then incubated for a further hour with anti-human IgG-FITC or anti-mouse IgG-FITC, respectively (Millipore, USA; both at 0.25 mg/ml in TTBS with 5% Milk powder). Following further washing of membranes in TTBS, Ab-FITC bound proteins were visualized using a Typhoon variable mode analyzer (GE Healthcare, USA).

W420R = molecular target: T2, W420R
T2 construct: also called Mu-FXII W420R mutant with C-terminal 8xHis-tag; mutant d)
T2 single chain: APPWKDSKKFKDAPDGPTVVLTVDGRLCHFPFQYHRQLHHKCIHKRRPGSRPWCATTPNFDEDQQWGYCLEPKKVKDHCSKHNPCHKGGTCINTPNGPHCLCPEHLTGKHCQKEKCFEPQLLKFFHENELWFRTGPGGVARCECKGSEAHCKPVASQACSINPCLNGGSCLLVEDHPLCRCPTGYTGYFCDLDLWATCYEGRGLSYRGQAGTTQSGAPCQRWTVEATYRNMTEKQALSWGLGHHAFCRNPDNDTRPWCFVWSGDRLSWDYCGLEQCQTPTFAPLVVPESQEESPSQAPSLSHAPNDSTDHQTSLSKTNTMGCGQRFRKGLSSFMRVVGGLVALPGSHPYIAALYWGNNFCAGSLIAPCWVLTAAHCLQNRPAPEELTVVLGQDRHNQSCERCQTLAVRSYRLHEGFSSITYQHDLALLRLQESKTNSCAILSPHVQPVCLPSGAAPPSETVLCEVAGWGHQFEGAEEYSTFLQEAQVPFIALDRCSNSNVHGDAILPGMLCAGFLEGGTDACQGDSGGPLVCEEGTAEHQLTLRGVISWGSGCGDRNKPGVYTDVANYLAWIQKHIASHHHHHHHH
Method: as §1

G472S = molecular target: T3, G472S
T3 construct: also called Mu-FXII G472S mutant with C-terminal 8xHis-tag; mutant k)
T3 single chain: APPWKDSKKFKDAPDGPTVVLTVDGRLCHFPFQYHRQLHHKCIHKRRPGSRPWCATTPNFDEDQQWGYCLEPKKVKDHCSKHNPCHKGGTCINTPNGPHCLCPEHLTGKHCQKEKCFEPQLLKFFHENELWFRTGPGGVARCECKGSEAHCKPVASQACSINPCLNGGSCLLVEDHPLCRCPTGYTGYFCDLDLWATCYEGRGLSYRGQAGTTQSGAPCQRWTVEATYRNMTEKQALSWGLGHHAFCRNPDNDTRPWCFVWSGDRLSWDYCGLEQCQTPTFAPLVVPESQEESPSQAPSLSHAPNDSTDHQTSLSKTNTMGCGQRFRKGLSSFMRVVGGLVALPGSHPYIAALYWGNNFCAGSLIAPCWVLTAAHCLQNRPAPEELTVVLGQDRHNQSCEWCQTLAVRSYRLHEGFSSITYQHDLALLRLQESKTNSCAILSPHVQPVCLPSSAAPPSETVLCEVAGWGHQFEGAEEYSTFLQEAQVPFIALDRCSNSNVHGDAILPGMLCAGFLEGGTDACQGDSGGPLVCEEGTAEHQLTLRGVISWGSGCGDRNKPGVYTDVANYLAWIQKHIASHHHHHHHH
Method: as §1

A385D = molecular target: T4, A385D
T4 construct: also called Mu-FXII A385D mutant with C-terminal 8xHis-tag; mutant b)
T4 single chain: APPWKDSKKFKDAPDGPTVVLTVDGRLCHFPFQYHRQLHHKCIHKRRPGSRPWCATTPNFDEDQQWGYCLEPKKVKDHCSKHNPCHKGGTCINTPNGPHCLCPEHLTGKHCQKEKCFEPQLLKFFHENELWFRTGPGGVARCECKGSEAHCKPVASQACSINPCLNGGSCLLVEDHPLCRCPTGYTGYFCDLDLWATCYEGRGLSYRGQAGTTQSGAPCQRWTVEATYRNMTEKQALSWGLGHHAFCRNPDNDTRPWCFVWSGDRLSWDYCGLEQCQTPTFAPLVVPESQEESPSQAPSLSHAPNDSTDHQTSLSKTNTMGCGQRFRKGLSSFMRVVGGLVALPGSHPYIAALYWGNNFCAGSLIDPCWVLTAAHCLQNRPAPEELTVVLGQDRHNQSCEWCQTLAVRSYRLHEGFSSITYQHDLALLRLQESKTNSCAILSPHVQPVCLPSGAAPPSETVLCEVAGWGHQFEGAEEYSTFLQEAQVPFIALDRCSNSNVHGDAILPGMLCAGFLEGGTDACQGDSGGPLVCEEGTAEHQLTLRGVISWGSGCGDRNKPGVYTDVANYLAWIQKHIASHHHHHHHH
Method: as §1

Measured: binding result

B1: monoclonal antibody 3F7 (fully human IgG4/lambda) (antibody, V domains shown)
VH: EVQLLESGGGLVQPGGSLRLSCAASGFTFSKYIMQWVRQAPGKGLEWVSGIRPSGGTTVYADSVKGRFTISRDNSKNTLYLQMNSLRAEDTAVYYCARALPRSGYLISPHYYYYALDVWGQGTTVTVSS
VL: QSELTQPPSASGTPGQRVTISCSGSSSNIGRNYVYWYQQVPGTAPKLLIYSNNQRPSGVPDRFSGSKSGTSASLVISGLRSEDEADYYCAAWDASLRGVFGGGTKLTVLG
notes: also called 3F7 mAb; MAb 3F7
binds: all assays above
